Assay results reported in patent US20200010567A1 (NEURIMMUNE, published 2020).

How the values were obtained:
[1] = molecular target: T1, (GA)15: H-CHHHHHH(GA)15-OH; test: indirect ELISA, uncoupled peptide coated, antibody titrated [also D00010 FIG. 2H]
T1 construct: synthetic, not coupled to BSA; also called poly-GA DPR protein peptide
T1 peptide: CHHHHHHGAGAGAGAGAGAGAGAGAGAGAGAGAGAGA
Procedure: (§1) In brief, dipeptide repeat proteins were synthesized and purified by Schafer-N(Copenhagen, Denmark): (GA)₁₅: H-CHHHHHH(GA)₁₅-OH; (GP)₁₅: H-C(GP)₁₅-OH; (GR)₁₅: H-C(GR)₁₅-OH; (PA)₁₅: H-C(PA)₁₅-OH; (PR)₁₅: H—C(PR)₁₅-OH. 96-well microplates (Corning Incorporated, Corning, USA) were coated with dipeptide repeat protein peptides at a concentration of either 5 μg/ml or 20 μg/ml in coating buffer (15 mM Na₂CO₃, 35 mM NaHCO₃, pH 9.42). Non-specific binding sites were blocked for 1 h at room temperature with PBS/0.1% Tween®-20 containing 2% BSA (Sigma-Aldrich, Buchs, Switzerland). Primary antibodies were diluted to the indicated concentrations and incubated for 1 h at room temperature, followed by incubation with a donkey anti-human IgG Fcγ-specific antibody conjugated with HRP (Jackson ImmunoResearch Laboratories, Inc., West Grove, USA). Binding was determined by measurement of HRP activity in a standard colorimetric assay. EC₅₀ values were estimated by non-linear regression using GraphPad Prism software (San Diego, USA). The binding specificity and EC₅₀ of human-derived antibodies for C9orf72 dipeptide repeat protein peptides (GA)₁₅, (GP)₁₅, (GR)₁₅, (PA)₁₅ and (PR)₁₅ were determined by indirect ELISA.

(GR)15: H-C(GR)15-OH = molecular target: T2, (GR)15: H-C(GR)15-OH; test: indirect ELISA, coated uncoupled peptide
T2 construct: synthetic, not coupled to BSA; also called poly-GR DPR protein peptide
T2 peptide: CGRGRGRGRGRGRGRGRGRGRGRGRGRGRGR

(PA)15: H-C(PA)15-OH = molecular target: T3, (PA)15: H-C(PA)15-OH; test: indirect ELISA, uncoupled peptide coated, antibody titrated [also D00015 FIG. 3K]
T3 construct: synthetic, not coupled to BSA; also called poly-PA DPR protein peptide
T3 peptide: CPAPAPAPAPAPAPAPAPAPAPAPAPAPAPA
Procedure: as §1, with “(PR)₁₅: H—C(PR)₁₅-OH. DPR protein peptides were then conjugated via a bifunctional linker (SMCC) to bovine serum albumin (BSA). 96-well microplates” for “(PR)₁₅: H—C(PR)₁₅-OH. 96-well microplates”, “coated with BSA-coupled or -uncoupled dipeptide repeat” for “coated with dipeptide repeat”, “and incubated 1 h” for “and incubated for 1 h”, “Diego, USA).” for “Diego, USA). The binding specificity and EC₅₀ of human-derived antibodies for C9orf72 dipeptide repeat protein peptides (GA)₁₅, (GP)₁₅, (GR)₁₅, (PA)₁₅ and (PR)₁₅ were determined by indirect ELISA.”

GP10: H-(GP)10HHHHHH-NH2 = molecular target: T4, GP10: H-(GP)10HHHHHH-NH2 (C-terminal amide); test: indirect ELISA, coated His-tagged peptide; indirect ELISA, peptide coated directly on the plate
T4 peptide: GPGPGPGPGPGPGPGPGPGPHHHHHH
Description: (§2) In brief, dipeptide repeat proteins were synthesized and purified by Schafer-N (Copenhagen, Denmark): GA₂₀: H-(GA)₂₀HHHHHH-NH₂; GA₁₀: H-(GA)₁₀HHHHHH-NH₂; GA₆: H-(GA)₆HHHHHH-NH₂; GA₅: H-(GA)₅HHHHHH-NH₂; GA₄: H-(GA)₄HHHHHH-NH₂; GA₃: H-(GA)₃HHHHHH-NH₂; GA₂: H-(GA)₂HHHHHH-NH₂; GP₂₀: H-(GP)₂₀HHHHHH-NH₂; GP₁₀: H-(GP)₁₀HHHHHH-NH₂; GP₆: H-(GP)₆HHHHHH-NH₂; GP₅: H-(GP)₅HHHHHH-NH₂; GP₄: H-(GP)₄HHHHHH-NH₂; GP₃: H-(GP)₃HHHHHH-NH₂; GP₂: H-(GP)₂HHHHHH-NH₂. GR₂₀: H-(GR)₂₀HHHHHH-NH₂; GR₁₀: H-(GR)₁₀HHHHHH-NH₂; GR₆: H-(GR)₆HHHHHH-NH₂; GR₅: H-(GR)₅HHHHHH-NH₂; GR₄: H-(GR)₄HHHHHH-NH₂; GR₃: H-(GR)₃HHHHHH-NH₂; GR₂: H-(GR)₂HHHHHH-NH₂; PA₂₀: H-(PA)₂₀HHHHHH-NH₂; PA₁₀: H-(PA)₁₀HHHHHH-NH₂; PA₆: H-(PA)₆HHHHHH-NH₂; PA₅: H-(PA)₅HHHHHH-NH₂; PA₄: H-(PA)₄HHHHHH-NH₂; PA₃: H-(PA)₃HHHHHH-NH₂; PA₂: H-(PA)₂HHHHHH-NH₂; PR₂₀: H-(PR)₂₀HHHHHH-NH₂; PR₁₀: H-(PR)₁₀HHHHHH-NH₂; PR₆: H-(PR)₆HHHHHH-NH₂; PR₅: H-(PR)₅HHHHHH-NH₂; PR₄: H-(PR)₄HHHHHH-NH₂; PR₃: H-(PR)₃HHHHHH-NH₂; PR₂: H-(PR)₂HHHHHH-NH₂. 96-well microplates (Corning Incorporated, Corning, USA) were coated with dipeptide repeat protein peptides at a concentration of 50 μg/ml in coating buffer (15 mM Na₂CO₃, 35 mM NaHCO₃, pH 9.42). Non-specific binding sites were blocked for 1 h at room temperature with PBS/0.1% Tween®-20 containing 2% BSA (Sigma-Aldrich, Buchs, Switzerland). Primary antibodies were diluted to the indicated concentrations and incubated 1 h at room temperature, followed by incubation with a donkey anti-human IgG Fcγ-specific antibody conjugated with HRP (Jackson ImmunoResearch Laboratories, Inc., West Grove, USA). Binding was determined by measurement of HRP activity in a standard colorimetric assay. EC₅₀ values were estimated by non-linear regression using GraphPad Prism software (San Diego, USA).

GP6: H-(GP)6HHHHHH-NH2 = molecular target: T5, GP6: H-(GP)6HHHHHH-NH2; test: as above
T5 peptide: H-GPGPGPGPGPGPHHHHHH-NH2
Description: as §2

GP5: H-(GP)5HHHHHH-NH2 = molecular target: T6, GP5: H-(GP)5HHHHHH-NH2; test: as above
T6 peptide: H-GPGPGPGPGPHHHHHH-NH2
Description: as §2

B1: NI-308.46E9 (antibody, V domains shown)
VH: QVQLQESGPGLVKPSETLSLTCTVSGASISGSTYYWGWIRQPPGKGLEYIGRIYYSGSTYYNPSLKSRATISVDTSKNQLSLTLSSVTAADTAVYYCVRPFYAGSGNSPFDYWGQGTLVTVSS
VL: CEIVLTQSPATVSVSPGERATLSCRASQSVSTNLAWYQQKPGQPPRLLIYGASTRATGIPARFSGSGSGAEFTLTISSLQSEDFVVYYCQQYNNWPPAFGGGTKVEIK
notes: Recombinant complete human IgG1, kappa
B1 was tested, and the EC50 [1] was over 200 nM.

B2: NI-308.6B11 (antibody, V domains shown)
VH: EVQLVQSGAEVKRPGASVKVSCKVSGYTLTELSMHWVRQAPGKGLEWMGGFDPEDGETVYAQKFQGRVTMTEDTSTDTAYMELSSLRSEDTALYHCATYGSSWHWNEGNEGSYYFDYWGQGTLVTVSS
VL: CDIQMTQSPSSLSASVGDRVTITCQASQDISIYLNWYQQKPGKAPKLLIYDASNLETGVPSRFSGSGSGTDFTFTISGLQPEDVARYYCQQYDDLPITFGQGTRLEIK
notes: as for B1
B2 showed an EC50 ((GR)15: H-C(GR)15-OH) of 0.94 nM.

B3: NI-308.4M1 (antibody, V domains shown)
VH: EVQLVETGGGVVQPGGSLRLSCEASGFTIGTYAMHWVRQFPGKGLDWVAVISFDGTTEYYTDAVKGRFTISRDNAKNTLYLQMNYLRGDDTAIYFCARDFTSSGETGSWTQVPDLWGQGTLVTVSS
VL: CEIVMTQSPATLSLSPGERATLSCRASQSVTKYLAWYQQKPGQAPRLLIYDVSYRAAGTPARFSGSGSGTDFTLTISSLEPEDFAVYYCHQRSSWPPVTFGGGTKVEIK
notes: as for B1
Binder B3 has an EC50 ((PA)15: H-C(PA)15-OH) of 0.1 nM.

B4: NI-308.5G2 (antibody, V domains shown)
VH: EVQLVQSGADLRNPGASVTVSCTASGYHFADNAINWLRQAPGQRLEWMGWINIYSGNTKYSQNFQGRVTFTRNTSASTAFMHLRSLRSEDTAVYFCARDPDSSGYYLPYFDYWGQGTLVTVSS
VL: DIQLTQSPDSLTLSLGERATINCKSSQSVFYNSNNKNYLAWYQQKPGQPPKLLMYWASTRESGVTDRFSGSGSGTDFTLTITNLQAEDVAVYYCQQFYSSPLTFGGGTKVEIK
notes: as for B1
With B4 the EC50 (GP10: H-(GP)10HHHHHH-NH2) was 0.94 nM, the EC50 (GP6: H-(GP)6HHHHHH-NH2) was 26.8 nM and the EC50 (GP5: H-(GP)5HHHHHH-NH2) was over 200 nM.
